Assay results from patent publication CN1886424A (dated 2006).

What was measured:
[1] = target: T1, 纯化的/生物素化的全长人IGF-I受体 (purified, biotinylated full-length human IGF-I receptor) (human, UniProt P08069 31-1367, biotinylated with PEO-maleimide-biotin (Kd and competition ELISAs); unmodified when coated directly); experiment: ELISA titration of the Fab on human IGF-I receptor
T1 construct: mature; also called 生物素化的IGF-I受体; 纯化的人IGF-I受体

[2] = target: 人肿瘤细胞上的人IGF-I受体 (endogenous human IGF-I receptor of human tumour cells: MCF-7, NCI-H838, SaOS-2 and others) (human) (UniProt P08069); experiment: cell-based or functional assay
[3] = target: 人肿瘤细胞上的人IGF-I受体 (endogenous human IGF-I receptor of human tumour cells: MCF-7, NCI-H838, SaOS-2 and others) (human) (UniProt P08069); experiment: displacement of biotin-IGF-I from MCF-7 cells at 4℃, 2 h; capture ELISA
[4] = target: 过量表达于3T3样细胞上的人Y1251F IGF-I受体 (human IGF-I receptor with Y1251F mutation on 3T3-like cells) (human) (UniProt P08069); experiment: cell ELISA on dried cells overexpressing human Y1251F IGF-I receptor, 12 min colour development
[5] = target: 人肿瘤细胞上的人IGF-I受体 (endogenous human IGF-I receptor of human tumour cells: MCF-7, NCI-H838, SaOS-2 and others) (human) (UniProt P08069); experiment: displacement of biotin-IGF-I from MCF-7 cells at 37℃, 30 min, 10-100 μg/mL antibody; capture ELISA
[6] = target: T1, 纯化的/生物素化的全长人IGF-I受体 (purified, …); experiment: ELISA titration on biotinylated human IGF-I receptor captured on streptavidin, one-site non-linear regression

T1 sequence (P08069 31-1367 limits assumed): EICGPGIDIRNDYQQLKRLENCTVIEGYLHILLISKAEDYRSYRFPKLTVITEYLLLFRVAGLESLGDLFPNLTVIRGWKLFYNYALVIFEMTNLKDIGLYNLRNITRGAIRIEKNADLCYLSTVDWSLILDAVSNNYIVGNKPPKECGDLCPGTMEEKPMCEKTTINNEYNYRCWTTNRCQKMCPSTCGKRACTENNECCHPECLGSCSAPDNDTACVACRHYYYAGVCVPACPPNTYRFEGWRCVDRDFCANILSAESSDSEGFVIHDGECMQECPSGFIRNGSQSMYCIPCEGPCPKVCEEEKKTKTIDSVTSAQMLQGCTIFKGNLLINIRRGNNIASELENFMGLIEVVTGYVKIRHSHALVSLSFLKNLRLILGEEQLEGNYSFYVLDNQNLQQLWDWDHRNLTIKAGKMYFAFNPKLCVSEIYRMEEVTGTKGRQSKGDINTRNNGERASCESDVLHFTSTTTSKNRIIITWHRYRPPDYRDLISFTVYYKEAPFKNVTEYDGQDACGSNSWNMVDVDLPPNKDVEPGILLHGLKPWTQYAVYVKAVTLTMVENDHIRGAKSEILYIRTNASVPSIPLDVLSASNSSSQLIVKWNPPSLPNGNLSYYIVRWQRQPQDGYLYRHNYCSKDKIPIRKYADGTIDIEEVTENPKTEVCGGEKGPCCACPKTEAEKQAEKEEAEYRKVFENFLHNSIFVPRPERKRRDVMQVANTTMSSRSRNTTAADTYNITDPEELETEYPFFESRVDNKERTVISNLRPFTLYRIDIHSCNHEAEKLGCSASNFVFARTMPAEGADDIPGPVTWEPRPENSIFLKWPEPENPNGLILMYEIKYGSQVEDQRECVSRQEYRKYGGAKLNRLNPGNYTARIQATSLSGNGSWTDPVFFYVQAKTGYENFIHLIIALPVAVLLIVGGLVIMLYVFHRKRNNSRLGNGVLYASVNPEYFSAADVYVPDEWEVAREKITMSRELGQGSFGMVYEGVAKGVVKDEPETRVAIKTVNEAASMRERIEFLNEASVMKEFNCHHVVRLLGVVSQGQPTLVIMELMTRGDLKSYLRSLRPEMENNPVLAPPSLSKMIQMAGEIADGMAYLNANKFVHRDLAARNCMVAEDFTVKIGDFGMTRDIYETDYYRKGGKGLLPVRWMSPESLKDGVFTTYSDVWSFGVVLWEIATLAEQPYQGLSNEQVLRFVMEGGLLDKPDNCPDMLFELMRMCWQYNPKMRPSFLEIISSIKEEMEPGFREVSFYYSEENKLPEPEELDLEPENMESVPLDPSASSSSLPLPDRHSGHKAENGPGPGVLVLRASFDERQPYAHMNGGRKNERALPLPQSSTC

Kd [1] [nM] | MCF-7 cell cycle, percent of cells in G0/G1 phase with IGF-I (20 ng/mL) plus EM164 (20 μg/mL); 50% without EM164 [2] [%] | MCF-7 cell cycle, percent of cells in S phase with IGF-I (20 ng/mL) plus EM164 (20 μg/mL); 41% without EM164 [2] [%] | percent inhibition of IGF-I-stimulated growth in serum-free medium, MTT assay, A 375 (melanoma) [2] [%] | percent inhibition of IGF-I-stimulated growth in serum-free medium, MTT assay, A431 (epidermoid) [2] [%] | percent inhibition of IGF-I-stimulated growth in serum-free medium, MTT assay, Calu-6 [2] [%] | percent inhibition of IGF-I-stimulated growth in serum-free medium, MTT assay, Colo 205 (colon) [2] [%] | percent inhibition of IGF-I-stimulated growth in serum-free medium, MTT assay, HT-29 [2] [%] | percent inhibition of IGF-I-stimulated growth in serum-free medium, MTT assay, SK-Mel-37 [2] [%] | percent inhibition of IGF-I-stimulated growth in serum-free medium, MTT assay, SK-N-SH (neuroblastoma) [2] [%] | percent displacement of pre-bound biotinylated IGF-I [3] [%] | absorbance (cell ELISA signal) (absorbance units) [4] | percent displacement of pre-bound biotinylated IGF-I [5] [%] | Kd [6] [nM] | Binder
0.3 |  |  |  |  |  |  |  |  |  |  |  |  |  | EM164抗体的Fab片段 (Fab fragment of EM164, papain digest) (Fab, V domains shown, also called EM164 Fab) VH: QVQLQQSGAELVKPGASVKLSCKASGYTFTSYWMHWVKQRPGQGLEWIGEINPSNGRTNYNEKFKRKATLTVDKSSSTAYMQLSSLTSEDSAVYYFARGRPDYYGSSKWYFDVWGAGTTVTVSS VL: DVLMTQTPLSLPVSLGDQASISCRSSQSIVHSNVNTYLEWYLQKPGQSPKLLIYKVSNRFSGVPDRFSGSGSGTDFTLRISRVEAEDLGIYYCFQGSHVPPTFGGGTKLEIKR
 | 77 | 9 | 90 | 85 | 85 | 50 | 60 | 85 | 85 | 50 | 0.88 | 90 | 0.1 | 鼠抗IGF-I受体抗体EM164 (murine anti-IGF-I receptor antibody EM164) (antibody, V domains shown, Purified from hybridoma; also called EM164抗体; muEM164) VH: QVQLQQSGAELVKPGASVKLSCKASGYTFTSYWMHWVKQRPGQGLEWIGEINPSNGRTNYNEKFKRKATLTVDKSSSTAYMQLSSLTSEDSAVYYFARGRPDYYGSSKWYFDVWGAGTTVTVSS VL: DVLMTQTPLSLPVSLGDQASISCRSSQSIVHSNVNTYLEWYLQKPGQSPKLLIYKVSNRFSGVPDRFSGSGSGTDFTLRISRVEAEDLGIYYCFQGSHVPPTFGGGTKLEIKR
